Measurements from the supplement of paper PMC10567573.

B1: WSB1 (parent)
chain: DLKDDGNMMKVLRGHQNWVYSCAF
B2: ZNF193 (parent)
chain: QCIECGKSFNRHCNLIRHQKIHTV

Variants of: B1
Assay: protein stability index of a GFP-peptide fusion (GPS, HEK-293T) (PSI 1-6); higher = more stable
Settings: c terminus: a fixed tail appended
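Also: lentivirally expressed fusions sorted by FACS into six bins by GFP to DsRed ratio, PSI derived from sequencing read proportions per bin multiplied by bin number.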

Protein stability index: each site, then its substitutions
V11: Y 2.26, R 1.69, G 1.65, A 1.75, I 1.59, D 1.93, W 2, M 2, E 2.01, Q 2.62, T 2.41, K 1.57, S 2.79, P 2.31, F 2.64, N 1.57, L 1.63
D4: P 2.28, K 2.29, N 3.38, T 1.98, E 1.91, F 2.77, Q 2.63, L 3.75, C 2.88, S 2.42, I 2.67, H 1.66, Y 2.28, W 2.2, M 2.4, R 1.59, G 1.16
K3: Q 1.37, T 2.65, F 2.12, D 2.57, H 1.93, W 2.49, G 2.54, C 2.27, N 1.43, S 1.77, A 2.75, L 1.83, P 1.07, E 1.9, Y 1.84, R 1.48, M 2.06
G6: C 2.17, S 1.92, E 2.38, L 1.13, A 2.03, I 2.23, N 2.12, D 1.94, Y 1.77, M 1.72, P 2.28, K 1.75, R 1.62, Q 1.58, V 1.74, W 3.64
D1: T 2.3, N 2.02, E 2.24, V 1.89, P 1.59, G 1.76, A 1.62, Q 1.38, R 1, Y 1.78, M 2.04, H 1.78, L 2.52, F 2.47, K 2.65
N7: T 1.47, D 2.58, W 3.11, R 1.71, I 3.63, E 1.66, G 2.54, V 2.03, P 2.54, S 1.9, A 1.09, H 1.62, C 1.83, K 2, Q 1.76, M 3.16
L12: H 1.44, M 1.24, W 2.38, G 1.91, C 2.38, Y 2.74, Q 1.16, F 1.67, E 2.27, D 2.01, I 1.49, T 1.37, R 3.69, P 2.2, K 1.85, N 1.5
M9: D 1.88, E 2.03, Q 1.73, R 1.54, S 1.43, F 2.67, H 2.19, L 1.61, V 1.27, K 1.95, T 1.45, Y 1.06, A 2.02, I 4.37, N 1.89
W18: I 2.35, C 2.38, F 1.47, H 2.34, E 2.62, A 2.49, G 2.21, D 1.69
H15: I 1.96, T 1.92, Q 1.5, K 2.24, S 1.88, M 1.46, A 2.26, W 1.94, P 2.65, L 1.78, E 2.75, G 4.54, N 2.81, D 1.49, R 1.91, F 2.4
N17: F 2.34, G 1.78, K 2.1, A 2.33, E 1.68, P 1.86, H 1.26, Q 2.95, D 1.94, R 2.05, S 1.81
M8: S 2.02, H 2.34, K 2.15, D 2.5, I 2.03, W 1.09, C 1.38, Q 2.26, L 1.15, N 2.29, T 1.54, R 2.35, P 2.44, G 2.55, Y 1.39, A 1.83, V 1.54
G14: D 1.91, R 1.29, E 1.45, S 2, H 1.81, W 1.87, N 1.26, A 1.33, T 2.39, C 2.43, P 1.91, Q 2.31, Y 2.35, L 2.05, K 2.23
D5: F 3.73, R 3.41, M 3.35, P 3.34, Y 2.25, G 1.68, E 1.96, I 2.12, T 3.18, N 2.04, K 1.69, H 1.86, A 2.66, Q 2
L2: P 1.82, E 1.95, R 2.05, C 2.13, A 1.47, I 1.69, G 1.91, N 2.53, T 2.08, K 1.54, Y 1.93, M 1.65, F 1.59, S 1.34, Q 1.83, V 1.29, D 2.39, H 1.68
R13: T 2.21, Y 2.46, E 2.88, Q 2.45, A 1.73, H 1.46, P 2.02, F 1.92, K 1.58, N 2.74, M 2.28, W 3.05, S 1.53, D 1.32
Q16: T 2.79, H 2.75, F 2.8, E 2.36, V 1.52, N 1.79, M 2.04, K 2.41, S 2.54, P 2.52, Y 1.4, D 1.71, A 2.32, I 2.04, C 2.3, L 1.48
K10: T 1.5, D 1.72, R 2.4, I 2.34, F 4.7, C 2.19, M 1.55, H 1.96, Y 2.78, P 2.27, A 2.38, E 1.49, Q 2.02, S 1.96, V 2.1, N 1.31, L 2.53

Variants of: B2
Assay: as above
Settings: c terminus: a fixed tail appended

Protein stability index, by site and new letter:
C13: I 3.04, S 3.95, F 2.62
N10: V 3.75, W 3.51, K 4.64
I3: K 3.87, V 3.73
S8: E 3.52, M 3.48, G 2.49
K7: N 2.34, W 2.18, C 2.51, Y 2.29, D 2.57
I21: E 4.1
I16: A 2.74, V 3.69, P 2.56
K20: N 2.61
N14: D 5.09, G 2.72
H18: C 2.55, L 1.71, N 2.31
F9: D 3.09, V 1.92, G 2.86, H 2.55
R11: K 3.7, D 4.37, N 4.26, Y 3.04, E 3.76, C 3.55
H22: R 2.89, F 1.63
R17: A 3.31, D 3.78
E4: N 2.76, H 4.27, K 3.1, Y 3.06
V24: K 4.68
L15: P 2.39, Y 3.35, I 2.24, T 2.29
C2: Q 2.14
C5: N 1.79
G6: R 2.5, Q 2.44
Q1: F 2.83, K 3.6, P 2.62, A 3.14
Q19: P 1.99, V 2.5
